In the supplement of paper PMC10126150:
± gives the standard deviation of the averaged measurements.

These sequences were tested on ATP (assay: switch fluorescence ratio, 500 uM ATP over buffer (Cy3 cluster intensity, sum of 5 cycles each) (fold (ratio)); higher = stronger signal-on switching upon ATP binding; sequences stand for … in TCGTCGGCAGCGTCAGATGTGTATAAGAGACAGTTTTTTTTTTTTTTTTTTTTTTTTT…TC). Settings: aptamer strand: ATP DNA aptamer (quencher-CACCTGGGGGAGTATTGCGGAGGAAGG + anchor), 100 nM annealed; ATP concentration: 500 uM.
How it was run: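 Cy3-labelled switching-strand clusters on a modified Illumina MiSeq flow-cell were annealed to 100 nM quencher-labelled ATP aptamer, imaged in selection buffer, then imaged after 15 min with 500 uM ATP at 22 °C. Five buffer/ATP cycles ran, with NaOH stripping and re-annealing between them. The fluorescence ratio is summed target-cycle over summed buffer-cycle Cy3 intensity per cluster, averaged per switch-domain sequence. Clusters outside 100-1000 RFU were excluded.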
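Note: ATP exposure 15 min at 22 °C before imaging.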

Row | Sequence | switch fluorescence ratio
1 | TGAATTGGGG | 1.06 ± 0.084
2 | AGGGATACCG | 1.01 ± 0.066
3 | TTACTACGTA | 1.04 ± 0.059
4 | CTTACTCTTT | 1.0258 ± 0.00043
5 | TATTCAGGGG | 1.03 ± 0.058
6 | TAGAGTTGGG | 0.986 ± 0.015
7 | GATAATATTT | 0.986 ± 0.011
8 | GTTAGCCGCT | 1.03 ± 0.014
9 | TATTAGGCGC | 0.982 ± 0.022
10 | TTTGAGTTAA | 0.994 ± 0.037
11 | CTTCATAGAT | 1.02 ± 0.016
12 | GGCGAGTTAC | 1.021 ± 0.0012
13 | TTTGCTTTGT | 1.01 ± 0.023
14 | GTGGGAATGG | 0.9747 ± 0.0072
15 | ATTAAATTTC | 0.987 ± 0.014
16 | GTTTAAAAGC | 0.9842 ± 0.0061
17 | TTTGTTTACT | 0.99165 ± 0.00046
18 | CTTCTAGGGG | 1.05 ± 0.011
19 | AGGTTATATT | 1.01 ± 0.024
20 | TCACGTTTAG | 1.03 ± 0.011
21 | GGGCTGGTTC | 1.03 ± 0.017
22 | AGCATGATGG | 1.04 ± 0.021
23 | GTTCTATCAG | 0.995 ± 0.09
24 | ATGTTAGGGG | 0.981 ± 0.041
25 | CGGGGTGTGT | 1.01 ± 0.023

Row | Sequence | switch fluorescence ratio
26 | TTCTTTGTTG | 0.984 ± 0.046
27 | TAAATGGTCC | 1.073 ± 0.0063
28 | GGAAAAGGGA | 1.01 ± 0.049
29 | AAAGTTCCTA | 0.968 ± 0.033
30 | ATCGTTGTA | 1.04 ± 0.069
31 | CTGGCAGGAA | 1.01 ± 0.051
32 | GGGTTAGATC | 1.03 ± 0.039
33 | CAGGTTTTTG | 0.983 ± 0.028
34 | CAAGTTTGTA | 0.997 ± 0.021
35 | GTTTTATCCG | 1.025 ± 0.0045
36 | TGCAGGGGTC | 1.02 ± 0.025
37 | GTTAGGGGAA | 1.02 ± 0.031
38 | CGAGGAATTT | 1.04 ± 0.043
39 | TGGACCCGGC | 0.9858 ± 0.0054
40 | TACGTAGGCA | 1.073 ± 0.0077
41 | TTATGGAAGA | 0.98 ± 0.026
42 | CAATTCGTAA | 1.11 ± 0.018
43 | TATGGTGAGC | 1.01 ± 0.023
44 | GAGGGGATCG | 0.967 ± 0.015
45 | GGTGGGATCA | 1.09 ± 0.18
46 | TTAGGCTACT | 1.01 ± 0.035
47 | GACGAGTTTT | 1.01 ± 0.022
48 | GGAATCGGTG | 0.996 ± 0.04
49 | GATGAGTATA | 1 ± 0.021
50 | GGGTGTCAGC | 1.02 ± 0.017

Row | Sequence | switch fluorescence ratio
51 | CATGTTAGGT | 1.01 ± 0.025
52 | AGGAAAATGG | 1 ± 0.021
53 | AGTTTTGAGG | 1.001 ± 0.0016
54 | TATAAAGTTT | 1.01 ± 0.0081
55 | AGGAGGAGGG | 0.932 ± 0.021
56 | TCTTTTGAGG | 1.02 ± 0.056
57 | GACGGGGCAG | 0.995 ± 0.015
58 | TATATGCCTT | 1.01 ± 0.036
59 | ATGAGTCTTT | 0.9801 ± 0.0079
60 | CGTCTGAATG | 0.9983 ± 0.0024
61 | TCACCAGGTA | 2.163 ± 0.021
62 | TTGGAAAAGT | 0.988 ± 0.036
63 | GGGTGAACTT | 0.988 ± 0.033
64 | CGGGGCGCGC | 1.02 ± 0.044
65 | TATGTAAGGA | 0.985 ± 0.041
66 | CAGTCTTCTT | 1.02 ± 0.026
67 | CAATAGGGCA | 0.943 ± 0.024
68 | CAGTTCAGTA | 0.992 ± 0.03
69 | TTGGAACGAT | 1.02 ± 0.07
70 | AATGGCCAAG | 1 ± 0.0056
71 | TTGCTGGCGC | 1.036 ± 0.0055
72 | TAATAATGAG | 0.981 ± 0.011
73 | TATGGGCATT | 0.998 ± 0.016
74 | GCGGAGGCGG | 0.976 ± 0.031
75 | AGGGGAAGTG | 0.955 ± 0.07

Row | Sequence | switch fluorescence ratio
76 | GATTCTTGAA | 1.01 ± 0.22
77 | AATAAGGGGG | 1.01 ± 0.064
78 | ATCTATGGTG | 1.02 ± 0.02
79 | ATGGAACCTT | 1.28 ± 0.34
80 | TTTTAATCCC | 1.07 ± 0.062
81 | CATGTTAGTA | 1.02 ± 0.021
82 | TAGAACTGGG | 1.05 ± 0.037
83 | TTACGGTGAC | 1.17 ± 0.059
84 | TTTTGTTATA | 0.9783 ± 0.0036
85 | GAGCTGGGCG | 0.969 ± 0.13
86 | TTGTTGCCTG | 0.9907 ± 0.0083
87 | GGCAATTATG | 1.02 ± 0.025
88 | AATGAAAATC | 1.08 ± 0.15
89 | GGGAGGTAAT | 1 ± 0.056
90 | GGGCGGGAAC | 1.014 ± 0.0088
91 | CGGAAGGCAT | 1.04 ± 0.025
92 | TGTTACGGGG | 0.98654 ± 0.00045
93 | CTCCATTGAT | 1.01 ± 0.042
94 | CAGTTTCGTT | 1.02 ± 0.037
95 | AGATACTGCA | 1.05 ± 0.0087
96 | TATGGAGTGG | 1 ± 0.039
97 | TATGACGCGG | 0.9833 ± 0.0053
98 | ATTCGTGTTT | 0.978 ± 0.017
99 | CTAGTGCTCG | 0.971 ± 0.022
100 | TTTTTGTCAC | 1.03 ± 0.038

Row | Sequence | switch fluorescence ratio
101 | GAGAGTGGTT | 0.998 ± 0.012
102 | AGGTCGGGAG | 0.9895 ± 0.0072
103 | TGATCTAGGC | 0.98 ± 0.074
104 | TGGTTGGGAC | 0.9953 ± 0.0089
105 | TGGAGTCAGG | 1.05 ± 0.049
106 | TTTAAAGGGG | 1.05 ± 0.14
107 | TTACGGGCAC | 1.18 ± 0.012
108 | TTTTAAGAGA | 1.01 ± 0.017
109 | CGTGACGGTA | 1.042 ± 0.0014
110 | CAAGCTTTCG | 1.06 ± 0.048
111 | TTCAAAATTT | 0.982 ± 0.015
112 | CAGAGTGGGA | 1.03 ± 0.016
113 | CTTGTTGATG | 1 ± 0.036
114 | GGCCGGGGGT | 1.25 ± 0.4
115 | ATTTTTGGGC | 0.993 ± 0.024
116 | TTCGAGAGGG | 0.981 ± 0.028
117 | GACGTTTTGT | 0.96221 ± 0.00058
118 | GGGGGTGCGA | 1.01 ± 0.026
119 | TTGTGCGGGA | 0.999 ± 0.013
120 | TCTAAAGGGT | 0.9988 ± 0.0021
121 | GAGGTTGCGG | 0.96 ± 0.036
122 | TTTCTGACGG | 1.35 ± 0.58
123 | ACGGGGGCTG | 0.996 ± 0.037
124 | TATACGAAGA | 1.08 ± 0.045
125 | TGAGATTCTG | 1.05 ± 0.043

Row | Sequence | switch fluorescence ratio
126 | TGTTAGTTAT | 1.06 ± 0.066
127 | GGGCTAGAGG | 0.974 ± 0.022
128 | TCTCAAATTT | 0.975 ± 0.029
129 | TATAAGAGCG | 1.004 ± 0.0065
130 | GTGAGGGTTT | 0.9758 ± 0.005
131 | GGGAGTAGAC | 1.02 ± 0.045
132 | CGCGGTGTGG | 1.03 ± 0.022
133 | ATAAGGGGGA | 0.998 ± 0.022
134 | GCGTTATTGG | 1.03 ± 0.018
135 | ATCAAGTGAG | 0.998 ± 0.015
136 | TTGTGGAGTT | 1.01 ± 0.017
137 | ATAGAAGAGA | 0.985 ± 0.027
138 | TGAAGAACGC | 1.07 ± 0.021
139 | CAATATGATA | 1.003 ± 0.0011
140 | GAGCGAAAGG | 0.991 ± 0.025
141 | TCATGGCGGT | 1.01 ± 0.014
142 | TAATACGGCG | 1.009 ± 0.01
143 | ACGGATGGGG | 0.997 ± 0.019
144 | CTGGATTGGG | 0.98 ± 0.028
145 | ATGTGGCTCT | 0.9984 ± 0.0069
146 | GTTTGTGGTT | 0.988 ± 0.019
147 | TTGTCGTGCC | 1.031 ± 0.0098
148 | TAACTCTGAG | 0.979 ± 0.015
149 | ATTCTGAGGC | 1.03 ± 0.045
150 | AGGAAACCCG | 0.994 ± 0.064

Row | Sequence | switch fluorescence ratio
151 | TACGAAATGT | 1.041 ± 0.0098
152 | GTAATTGGGT | 0.986 ± 0.015
153 | CAGCTCTAAG | 1 ± 0.013
154 | AGGAAAAAGT | 1.02 ± 0.039
155 | GTGGTTGGGG | 1.01 ± 0.028
156 | GTGTTATAGG | 1 ± 0.026
157 | ATAAGTGGCA | 0.944 ± 0.027
158 | ATATTATTTC | 1.006 ± 0.0058
159 | TATCAGAAGC | 1.012 ± 0.01
160 | TATGTATATA | 1.01 ± 0.079
161 | CGATCGGTTG | 0.9499 ± 0.0033
162 | TAGGGAAAAG | 0.99 ± 0.013
163 | TCAAAACGGT | 1.34 ± 0.51
164 | TACGAATAGA | 1.056 ± 0.0097
165 | TCCCACGGCC | 1.083 ± 0.0017
166 | GGGTGACATT | 0.997 ± 0.094
167 | TTTGGTACCC | 1.01 ± 0.029
168 | ATTCATGATA | 0.975 ± 0.013
169 | AATAGTGGGC | 1.01 ± 0.043
170 | GATGTAGGGC | 1 ± 0.028
171 | TCGTTGATGC | 1.08 ± 0.08
172 | CCTGTGTCCG | 1.12 ± 0.052
173 | TGTGATAGTG | 0.999 ± 0.053
174 | TACTCCGTTT | 2.15 ± 0.34
175 | AGGAATTTGT | 1.035 ± 0.0091

Row | Sequence | switch fluorescence ratio
176 | AGTGTGTTGC | 1.023 ± 0.0095
177 | GGTCTGTGTG | 0.984 ± 0.028
178 | TGGAAAGTTT | 1 ± 0.052
179 | TTAGCGGCTG | 0.9585 ± 0.0026
180 | CTATTTTGAT | 0.979 ± 0.024
181 | AGTAAAGGGT | 0.999 ± 0.012
182 | AGTGGGGGTG | 1.03 ± 0.043
183 | AAGCGGGGAA | 1.02 ± 0.03
184 | TAGGAGGAGT | 0.951 ± 0.017
185 | TTGATTATTG | 0.999 ± 0.032
186 | TACATTGACG | 1.025 ± 0.0089
187 | TTGATGTGGT | 0.997 ± 0.084
188 | CCTGAGATAC | 1.88 ± 1
189 | CTATAAAAGT | 0.9983 ± 0.0076
190 | TAGGTTGCAA | 0.9665 ± 0.007
191 | ATTTAAGGCT | 0.99 ± 0.012
192 | GGTAATTTGG | 1 ± 0.023
193 | GAGTGACTCG | 1.01 ± 0.014
194 | GCCAGTTTGG | 0.9916 ± 0.0052
195 | CGGAGATAGT | 1.02 ± 0.028
196 | TATGTTGGAT | 0.988 ± 0.012
197 | TTATCCTGGG | 1.01 ± 0.023
198 | GGTACGGATC | 1.03 ± 0.018
199 | GTGAGTGGTG | 0.978 ± 0.015
200 | GATAAGGAAC | 0.9788 ± 0.0072
